Among the data in US20040052796A1 are Kd values, retold here.

What is called Kd is the constant that tells how readily two partners part at equilibrium.

This experiment concerns the target p185HER-2 (HER-2/neu, erbB-2 receptor tyrosine kinase) (human) (UniProt P04626). Kind of experiment: method not described; binding to cell surface p185HER-2 (statement in the summary).

The substance “p68HER-2 (herstatin), product of the alternative HER-2 transcript with retained intron 8 (ligand)” returned a Kd of 14 nM. In other words, the double-digit nanomolar range.
